Experimental data published in publication PMC6791878, “Evaluation of integrin αvβ6 cystine knot PET tracers to detect cancer and idiopathic pulmonary fibrosis” (Nature Communications, 2019).
Read-outs that look alike come from different tables or passages of the source.

Test system: pancreatic, cervical and lung cancer
Conditions: for ROI uptake RM (red marrow) / ROI uptake SI (small intestine) / ROI uptake Sk (skin) / ROI uptake Sp (spleen) / ROI uptake St (stomach) / ROI uptake TB (total body) / ROI uptake Tm (thymus) / ROI uptake Tr (thyroid) / ROI uptake ULI (upper large intestine) / ROI uptake Bl (bladder) / ROI uptake Bn (osteogenic cells) / ROI uptake Br (brain) / ROI uptake Brs (breast) / ROI uptake HC (heart contents) / ROI uptake HW (heart wall) / ROI uptake LLI (lower large intestine) / ROI uptake Ln (lung) / ROI uptake Lv (liver) / ROI uptake Ms (muscle) / ROI uptake Pn (pancreas) / ROI uptake Pt (pituitary gland): one patient, Fig 4C
Protocol: The administered dose was 55.5–96.2MBq (1.5–2.6 mCi). The scan (6 bed positions, 2 min bed^−1) covered an area that included the top of the skull to the middle of the femur. OSEM was applied for reconstruction. […] The CT scan (140 kV, 35 mA, pitch of 1:1, layer of 5 mm thickness; layer spacing of 3 mm, 512*512 matrix, field of view of 70 cm) also covered the top of the skull to the middle of the femur. […] Immediately upon completion of the first scan, the second whole-body static PET data was acquired. Sequentially, multiple whole-body static PET scans were acquired, one by one, from 0 to 75 min.
Upon co-registration of the PET and CT images, the CT images were used to determine regions of interest for the organs or tissues reported in the manuscript. These ROIs were applied to the PET images of the brain, pituitary gland, breast, lower and upper large intestine, small intestine, stomach, pancreas, heart wall, liver, lung, muscle, red marrow, bone, skin, and thyroid gland. For high uptake organs such as the kidneys, bladder and for the whole body, threshold-based segmentation of PET images were used to determine a close-fitting ROI around the entire organ or whole body. In order to determine accuracy, these PET-derived ROIs were compared to the CT overlay for a close match.

## CC[C@H](C)[C@@H]1NC(=O)[C@@H](NC(=O)CNC(=O)CCC(C(=O)O)N2CCN(CC(=O)O)CCN(CC(=O)O)CC2)CSSC[C@@H]2NC(=O)[C@H](C)NC(=O)CNC(=O)[C@@H]3CCCN3C(=O)[C@@H]3CSSC[C@@H](C(=O)NCC(N)=O)NC(=O)[C@H](Cc4ccc(O)cc4)NC(=O)CNC(=O)[C@H](CC(N)=O)NC(=O)CNC(=O)[C@H](CCCNC(=N)N)NC(=O)[C@H](CSSC[C@H](NC(=O)[C@H](CCCNC(=N)N)NC(=O)[C@H](Cc4ccccc4)NC(=O)[C@H](CC(C)C)NC(=O)[C@H](CC(C)C)NC(=O)[C@H]([C@@H](C)O)NC(=O)CNC(=O)[C@H](CC(C)C)NC(=O)[C@H](CC(=O)O)NC(=O)[C@H]([C@@H](C)O)NC(=O)[C@H](CCCNC(=N)N)NC(=O)CNC(=O)[C@H](CC(N)=O)NC(=O)[C@H](CC(C)C)NC1=O)C(=O)N[C@@H](CCCNC(=N)N)C(=O)N[C@@H](CCCNC(=N)N)C(=O)N[C@@H](CC(=O)O)C(=O)N[C@@H](CO)C(=O)N[C@@H](CC(=O)O)C(=O)N3)NC(=O)[C@H]([C@@H](C)CC)NC2=O (some centres unmarked) [[^68Ga]NODAGA-R01-MG, metal not drawn]
36 min p.i.
  ROI uptake RM (red marrow): 0.2108
  ROI uptake SI (small intestine): 6.296
  ROI uptake Sk (skin): 0.08072
  ROI uptake Sp (spleen): 0.426
  ROI uptake St (stomach): 2.242
  ROI uptake TB (total body): 0.6996
  ROI uptake Tm (thymus): 0.6323
  ROI uptake Tr (thyroid): 0.7534
  ROI uptake ULI (upper large intestine): 1.834
49 min p.i.
  ROI uptake Bl (bladder): 9.366
  ROI uptake Bn (osteogenic cells): 0.4088
  ROI uptake Br (brain): 0.04004
  ROI uptake Brs (breast): 0.5978
  ROI uptake HC (heart contents): 0.5978
  ROI uptake HW (heart wall): 0.3526
  ROI uptake LLI (lower large intestine): 1.426
  ROI uptake Ln (lung): 0.3066
  ROI uptake Lv (liver): 0.6029
  ROI uptake Ms (muscle): 0.7154
  ROI uptake Pn (pancreas): 0.9657
  ROI uptake Pt (pituitary gland): 2.212
  ROI uptake RM (red marrow): 0.1942
  ROI uptake SI (small intestine): 6.546
  ROI uptake Sk (skin): 0.07665
  ROI uptake Sp (spleen): 0.373
  ROI uptake St (stomach): 2.34
  ROI uptake TB (total body): 0.6949
  ROI uptake Tm (thymus): 0.5876
  ROI uptake Tr (thyroid): 0.5416
  ROI uptake ULI (upper large intestine): 1.661
61 min p.i.
  ROI uptake Bl (bladder): 9.011
  ROI uptake Bn (osteogenic cells): 0.8028
  ROI uptake Br (brain): 0.04398
  ROI uptake Brs (breast): 0.7155
  ROI uptake HC (heart contents): 0.5817
  ROI uptake HW (heart wall): 0.3897
  ROI uptake LLI (lower large intestine): 1.338
  ROI uptake Ln (lung): 0.3258
  ROI uptake Lv (liver): 0.6399
  ROI uptake Ms (muscle): 0.9889
  ROI uptake Pn (pancreas): 1.129
  ROI uptake Pt (pituitary gland): 2.048
  ROI uptake RM (red marrow): 0.07562
  ROI uptake SI (small intestine): 6.597
  ROI uptake Sk (skin): 0.1047
  ROI uptake Sp (spleen): 0.4654
  ROI uptake St (stomach): 2.513
  ROI uptake TB (total body): 0.5643
  ROI uptake Tm (thymus): 0.5119
  ROI uptake Tr (thyroid): 0.4479
  ROI uptake ULI (upper large intestine): 1.478
Average of patients, 29-60 min
  Bl, PET uptake, Average: 25.3728
  Bn, PET uptake, Average: 0.4809
  Br, PET uptake, Average: 0.09236
  Brs, PET uptake, Average: 0.4271
  CA, PET uptake, Average: 4.033
  HC, PET uptake, Average: 0.8404
  HW, PET uptake, Average: 0.6923
  LLI, PET uptake, Average: 1.574
  Ln, PET uptake, Average: 0.4315
  Lv, PET uptake, Average: 0.7253
  Ms, PET uptake, Average: 0.5597
  Pn, PET uptake, Average: 1.617
  Pt, PET uptake, Average: 3.247
  RM, PET uptake, Average: 0.2168
  SI, PET uptake, Average: 7.061
  Sk, PET uptake, Average: 0.1123
  Sp, PET uptake, Average: 0.4371
  St, PET uptake, Average: 8.975
  TB, PET uptake, Average: 0.841
  Tm, PET uptake, Average: 0.6358
  Tr, PET uptake, Average: 1.023
  ULI, PET uptake, Average: 1.719
~2 mCi i.v., ~1 h p.i., lasted about an hour, disappeared without treatment
  adverse reactions: One patient reported nausea and vertigo
